Columns and labels:
[1] = biological target: the molecule itself; test: crystal structure; mouse β4ex, cubic crystal form, 3.1 Å; 2.7 M sodium malonate, 0.1 M Tris-HCl (pH 7.0), 0.5% Tween 20, 20 °C; two molecules in the asymmetric unit related by non-crystallographic 2-fold symmetry
[2] = biological target: the molecule itself; test: SEC; HiLoad 16/60 Superdex 75, non-reducing conditions; second peak (65–75 ml) of the anion exchange chromatography; 20 mM Tris-HCl (pH 8.0), 150 mM NaCl, 10% glycerol

B1: mouse β4 subunit extracellular domain fragment (residues 30–160) with a C-terminal His6 tag (domain or fragment, UniProt Q7M729 30-160, looked up)
chain: SLEVSVGKATTIYAINGSSILLPCTFSSCYGFENLYFKWSYNNSETSRILIDGIVKNDKSDPKVRVKDDDRITLEGSTKEKTNNISILLSDLEFSDTGRYTCFVRNPKEKDLNNSATIFLQVVDKLEKVDN
notes: voltage-gated sodium channel β4 subunit, mouse, GenBank BK001031.1, residues 30–160 (numbering starts from the initiator methionine residue); all three Cys residues kept; Cloned into pGEX6P2; GST cleaved with PreScission protease; also called mouse β4ex; mouse β4 (cubic form); source: E. coli BL21DE3, purified (nickel-Sepharose, glutathione-Sepharose, Mono Q); not shown: His6, C-terminal, kept
binding result [1]: binds

B2: human β4 subunit extracellular domain fragment (residues 30–152) (domain or fragment, UniProt Q8IWT1-1 30-152, looked up)
chain: SLEVSVGKATDIYAVNGTEILLPCTFSSCFGFEDLHFRWTYNSSDAFKILIEGTVKNEKSDPKVTLKDDDRITLVGSTKEKMNNISIVLRDLEFSDTGKYTCHVKNPKENNLQHHATIFLQVV
notes: voltage-gated sodium channel β4 subunit, human, GenBank NP_777594, residues 30–152; all three Cys residues kept; His tag cleaved by tobacco etch virus protease; also called human β4ex; human β4 (hexagonal form); source: E. coli cell-free protein synthesis, purified (HisTrap, HiTrap Q, Superdex 75); not shown: His tag, N-terminal, cleaved
stoichiometry N [2]: 2

From publication PMC5555201, “Parallel homodimer structures of the extracellular domains of the voltage-gated sodium channel β4 subunit explain its role in cell–cell adhesion” (The Journal of Biological Chemistry, 2017)
